B1: EPB41L3 (parent)
chain: SDYISEFRFAPNHTKELEDKVIEL
B2: ZNF263 (parent)
chain: QRTHTGEKPYKCPECGEIFAHSSN

Variants of: B1
Test: protein stability index of a GFP-peptide fusion (GPS, HEK-293T) (PSI 1-6); higher = more stable
Details: c terminus: a fixed tail appended
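Also: lentivirally expressed fusions sorted by FACS into six bins by GFP to DsRed ratio, PSI derived from sequencing read proportions per bin multiplied by bin number.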

Row | Variant | protein stability index
1 | SDYISEFRFAPNHTKELEDLVIEL [K20L] | 2.28
2 | SDYISEFRFAPNHTKELEDTVIEL [K20T] | 1.68
3 | SDYISEFRFAPNHTKELEDMVIEL [K20M] | 1.8
4 | SDYISEFRFAPNHTKELEDSVIEL [K20S] | 2.3
5 | SDYISEFRFAPNHTKELEDAVIEL [K20A] | 2.4
6 | SDYISEFRFAPNHTKELEDPVIEL [K20P] | 2.2
7 | SDYISEFRFAPNHTKELEDVVIEL [K20V] | 2.02
8 | SDYISEFRFAPNHTKELEDYVIEL [K20Y] | 1.87
9 | SDYISEFRFAPNHTKELEDCVIEL [K20C] | 2.13
10 | SDYISEFRFAPNHTKELEDWVIEL [K20W] | 1.4
11 | SDYISEFRFAPNHTKELEDEVIEL [K20E] | 2.48
12 | SDYISEFRFAPNHTKELEDFVIEL [K20F] | 2.31
13 | SDYISEFRFAPNHTKELEDQVIEL [K20Q] | 1.89
14 | SDYISEFRFAPNHTKELEDNVIEL [K20N] | 1.87
15 | SDYISEFRFAPNHTKELEDRVIEL [K20R] | 1.83
16 | SDYISEFRFAPNHTKELEDGVIEL [K20G] | 1.93
17 | SDYISEFRFAPNHTKELEDDVIEL [K20D] | 2.71
18 | SDYISEFRFAPNHTKELEDHVIEL [K20H] | 1.79
19 | SDYISEFRFAPNHTKELEDIVIEL [K20I] | 3.7
20 | SDYISEFRFAPNHTKELEPKVIEL [D19P] | 2.19
21 | SDYISEFRFAPNHTKELECKVIEL [D19C] | 2.02
22 | SDYISEFRFAPNHTKELEYKVIEL [D19Y] | 1.36
23 | SDYISEFRFAPNHTKELEKKVIEL [D19K] | 1.89
24 | SDYISEFRFAPNHTKELEWKVIEL [D19W] | 3.08
25 | SDYISEFRFAPNHTKELEEKVIEL [D19E] | 1.77
26 | SDYISEFRFAPNHTKELEQKVIEL [D19Q] | 1.71

Row | Variant | protein stability index
27 | SDYISEFRFAPNHTKELETKVIEL [D19T] | 1.8
28 | SDYISEFRFAPNHTKELEAKVIEL [D19A] | 1.49
29 | SDYISEFRFAPNHTKELERKVIEL [D19R] | 1.39
30 | SDYISEFRFAPNHTKELEMKVIEL [D19M] | 2.03
31 | SDYISEFRFAPNHTKELENKVIEL [D19N] | 1.79
32 | SDYISEFRFAPNHTKELEHKVIEL [D19H] | 1.86
33 | SDYISEFRFAPNHTKELELKVIEL [D19L] | 2.69
34 | SDYISEFRFAPNHTKELEFKVIEL [D19F] | 3.65
35 | SDYISEFRFAPNHTKELESKVIEL [D19S] | 2.81
36 | SDYISEFRFAPNHTKELEIKVIEL [D19I] | 2.71
37 | SDYISEFRFAPNHTKELEVKVIEL [D19V] | 2.09
38 | SDYISEFRFAPNHTKELEGKVIEL [D19G] | 2.06
39 | SDYISEFRFAPNHTKELEDKVIEW [L24W] | 2.44
40 | SDYISEFRFAPNHTKELEDKVIEA [L24A] | 2.42
41 | SDYISEFRFAPNHTKELEDKVIEF [L24F] | 2.31
42 | SDYISEFRFAPNHTKELEDKVIEY [L24Y] | 2.08
43 | SDYISEFRFAPNHTKELEDKVIEG [L24G] | 3.33
44 | SDYISEFRFAPNHTKELEDKVIEI [L24I] | 2.12
45 | SDYISEFRFAPNHTKELEDKVIEK [L24K] | 2.96
46 | SDYISEFRFAPNHTKELEDKVIED [L24D] | 3.11
47 | SDYISEFRFAPNHTKELEDKVIET [L24T] | 2.28
48 | SDYISEFRFAPNHTKELEDKVIEM [L24M] | 2.16
49 | SDYISEFRFAPNHTKELEDKVIEC [L24C] | 3.05
50 | SDYISEFRFAPNHTKELEDKVIEV [L24V] | 2.18
51 | SDYISEFRFAPNHTKELEDKVIEE [L24E] | 2.65
52 | SDYISEFRFAPNHTKELEDKVIEN [L24N] | 2.25

Row | Variant | protein stability index
53 | SDYISEFRFAPNHTKELEDKVIEQ [L24Q] | 2.71
54 | SDYISEFRFAPNHTKELEDKVIEP [L24P] | 2.31
55 | SDYISEFRFAPNHTKELEDKVIEH [L24H] | 2.65
56 | SDYISEFRFAPNHTKELEDKVIER [L24R] | 2.69
57 | SDYISEFRFAPNHTKELEDKVIES [L24S] | 2.69
58 | SDYISEFRFAPNHTKELEDKVIDL [E23D] | 2.01
59 | SDYISEFRFAPNHTKELEDKVIYL [E23Y] | 2.38
60 | SDYISEFRFAPNHTKELEDKVIRL [E23R] | 2.02
61 | SDYISEFRFAPNHTKELEDKVIML [E23M] | 1.92
62 | SDYISEFRFAPNHTKELEDKVIFL [E23F] | 3.17
63 | SDYISEFRFAPNHTKELEDKVIPL [E23P] | 1.82
64 | SDYISEFRFAPNHTKELEDKVICL [E23C] | 1.38
65 | SDYISEFRFAPNHTKELEDKVITL [E23T] | 1.96
66 | SDYISEFRFAPNHTKELEDKVIVL [E23V] | 2.38
67 | SDYISEFRFAPNHTKELEDKVIWL [E23W] | 1.46
68 | SDYISEFRFAPNHTKELEDKVIHL [E23H] | 2.18
69 | SDYISEFRFAPNHTKELEDKVINL [E23N] | 1.42
70 | SDYISEFRFAPNHTKELEDKVIKL [E23K] | 1.75
71 | SDYISEFRFAPNHTKELEDKVIIL [E23I] | 1.55
72 | SDYISEFRFAPNHTKELEDKVILL [E23L] | 1.93
73 | SDYISEFRFAPNHTKELEDKVIAL [E23A] | 1.9
74 | SDYISEFRFAPNHTKELEDKVISL [E23S] | 2.09
75 | SDYISEFRFAPNHTKELEDKVIGL [E23G] | 1.72
76 | SDYISEFRFAPNHTKELEDKVIQL [E23Q] | 2.05

Variants of: B2
Test: as above
Details: c terminus: a fixed tail appended

Row | Variant | protein stability index
77 | SRTHTGEKPYKCPECGEIFAHSSN [Q1S] | 3.14
78 | FRTHTGEKPYKCPECGEIFAHSSN [Q1F] | 2.74
79 | TRTHTGEKPYKCPECGEIFAHSSN [Q1T] | 2.82
80 | VRTHTGEKPYKCPECGEIFAHSSN [Q1V] | 2.85
81 | IRTHTGEKPYKCPECGEIFAHSSN [Q1I] | 2.54
82 | RRTHTGEKPYKCPECGEIFAHSSN [Q1R] | 2.97
83 | LRTHTGEKPYKCPECGEIFAHSSN [Q1L] | 2.76
84 | WRTHTGEKPYKCPECGEIFAHSSN [Q1W] | 2.01
85 | PRTHTGEKPYKCPECGEIFAHSSN [Q1P] | 3.7
86 | MRTHTGEKPYKCPECGEIFAHSSN [Q1M] | 2.71
87 | ARTHTGEKPYKCPECGEIFAHSSN [Q1A] | 2.49
88 | DRTHTGEKPYKCPECGEIFAHSSN [Q1D] | 3.36
89 | GRTHTGEKPYKCPECGEIFAHSSN [Q1G] | 3.06
90 | KRTHTGEKPYKCPECGEIFAHSSN [Q1K] | 2.72
91 | ERTHTGEKPYKCPECGEIFAHSSN [Q1E] | 3.46
92 | CRTHTGEKPYKCPECGEIFAHSSN [Q1C] | 4.76
93 | NRTHTGEKPYKCPECGEIFAHSSN [Q1N] | 3.46
94 | HRTHTGEKPYKCPECGEIFAHSSN [Q1H] | 3.6
